According to PMC8633019 (2021):

Molecular target: SM α-actin (Homo sapiens, UniProt P62736)
Assay: TIRF microscopy polymerization assay

Kd: 3.3 µM
B1: MRTF-A (protein)
chain: MPPLKSPAAFHEQRRSLERARTEDYLKRKIRSRPERSELVRMHILEETSAEPSLQAKQLKLKRARLADDLNEKIAQRPGPMELVEKNILPVESSLKEAIIVGQVNYPKVADSSSFDEDSSDALSPEQPASHESQGSVPSPLEARVSEPLLSATSASPTQVVSQLPMGRDSREMLFLAEQPPLPPPPLLPPSLTNGTTIPTAKSTPTLIKQSQPKSASEKSQRSKKAKELKPKVKKLKYHQYIPPDQKQDRGAPPMDSSYAKILQQQQLFLQLQILNQQQQQHHNYQAILPAPPKSAGEALGSSGTPPVRSLSTTNSSSSSGAPGPCGLARQNSTSLTGKPGALPANLDDMKVAELKQELKLRSLPVSGTKTELIERLRAYQDQISPVPGAPKAPAATSILHKAGEVVVAFPAARLSTGPALVAAGLAPAEVVVATVASSGVVKFGSTGSTPPVSPTPSERSLLSTGDENSTPGDTFGEMVTSPLTQLTLQASPLQILVKEEGPRAGSCCLSPGGRAELEGRDKDQMLQEKDKQIEALTRMLRQKQQLVERLKLQLEQEKRAQQPAPAPAPLGTPVKQENSFSSCQLSQQPLGPAHPFNPSLAAPATNHIDPCAVAPGPPSVVVKQEALQPEPEPVPAPQLLLGPQGPSLIKGVAPPTLITDSTGTHLVLTVTNKNADSPGLSSGSPQQPSSQPGSPAPAPSAQMDLEHPLQPLFGTPTSLLKKEPPGYEEAMSQQPKQQENGSSSQQMDDLFDILIQSGEISADFKEPPSLPGKEKPSPKTVCGSPLAAQPSPSAELPQAAPPPPGSPSLPGRLEDFLESSTGLPLLTSGHDGPEPLSLIDDLHSQMLSSTAILDHPPSPMDTSELHFVPEPSSTMGLDLADGHLDSMDWLELSSGGPVLSLAPLSTTAPSLFSTDFLDGHDLQLHWDSCL
